# B1: N20a aptamer (ssDNA)
# DNA: GGCAGGAAGACAAACAGGTCGTAGTGGAAACTGTCCACCGTAGACCGGTTATCTAGTGGTCTGTGGTGCTGT
# modifications: 5'-NH2
# Assays:
# proBNP = proBNP (UniProt P16860 27-134); assay: aptamer-functionalised CVD graphene FET (GFET); after long-term storage; unexpected concentration-dependent response; 0.01x PBS with Tween (1x PBS: 2.7 mM KCl, 137 mM NaCl, 10 mM phosphate, pH 7.4); LOD in artificial saliva; surface blocked with ethanolamine and BSA; temperature not stated; conditions: protein: commercial
# Chain of proBNP (P16860 27-134): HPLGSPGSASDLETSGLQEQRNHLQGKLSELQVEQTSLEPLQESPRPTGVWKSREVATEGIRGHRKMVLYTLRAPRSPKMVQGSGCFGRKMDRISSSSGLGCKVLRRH
# NT-proBNP = NT-proBNP (UniProt P16860 27-102); assay: aptamer-functionalised rGO-FET; 0.01x PBS with Tween; response 10 fg/mL to 100 pg/mL; LOD 100 fg/mL in artificial saliva; 0.01x PBS with Tween (1x PBS: 2.7 mM KCl, 137 mM NaCl, 10 mM phosphate, pH 7.4); LOD in artificial saliva; surface blocked with ethanolamine and BSA; temperature not stated; conditions: protein: commercial
# Chain of NT-proBNP (P16860 27-102): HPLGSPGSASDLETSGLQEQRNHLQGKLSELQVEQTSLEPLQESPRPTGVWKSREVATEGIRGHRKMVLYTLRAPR
binder,measurement,setting,value
B1,binding result,proBNP,binds
same,binding result,NT-proBNP,binds
